Literature values, collected in PMC7615502.

Assays:
IL-2Rβγ (Homo sapiens) = IL-2Rβγ (Homo sapiens) (UniProt P14784)
IL-2Rα (Homo sapiens) = IL-2Rα (Homo sapiens) (UniProt P01589)
UniProt P01589, sequence (P01589 22-240): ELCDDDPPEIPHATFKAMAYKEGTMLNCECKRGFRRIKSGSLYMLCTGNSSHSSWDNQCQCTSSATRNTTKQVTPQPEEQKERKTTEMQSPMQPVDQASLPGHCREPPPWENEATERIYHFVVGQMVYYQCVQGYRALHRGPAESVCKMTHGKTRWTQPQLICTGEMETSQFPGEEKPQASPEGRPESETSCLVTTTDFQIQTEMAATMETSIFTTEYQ

UniProt P14784, sequence (P14784 27-240, chain 1 of 2): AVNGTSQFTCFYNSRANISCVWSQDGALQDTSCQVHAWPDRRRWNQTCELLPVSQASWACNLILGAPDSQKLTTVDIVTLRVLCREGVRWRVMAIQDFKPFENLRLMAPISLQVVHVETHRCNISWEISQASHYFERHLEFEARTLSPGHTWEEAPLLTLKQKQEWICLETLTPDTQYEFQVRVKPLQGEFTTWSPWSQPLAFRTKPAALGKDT
UniProt P14784, sequence (P31785 23-262, chain 2 of 2, further chain): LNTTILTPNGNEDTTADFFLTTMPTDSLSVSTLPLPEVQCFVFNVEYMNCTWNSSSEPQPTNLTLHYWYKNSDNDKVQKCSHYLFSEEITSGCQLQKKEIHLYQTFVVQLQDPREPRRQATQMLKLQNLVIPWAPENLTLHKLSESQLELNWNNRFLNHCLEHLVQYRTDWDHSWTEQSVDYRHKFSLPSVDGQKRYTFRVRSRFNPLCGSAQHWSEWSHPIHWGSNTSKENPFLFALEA

Kd (IL-2Rβγ (Homo sapiens)): 1 nM
Kd (IL-2Rα (Homo sapiens)): 10 nM
Substance: IL-2 (from UniProt P60568)
